Data: patent US20120107364A1 (ACTGEN, published 2012)

Tests used:
Experiment in all cases: flow cytometry on Ba/F3 cells expressing the truncated PODXL2
[1] = molecular target: T1, PODXL2, positions 1 to 420 (human, UniProt O00592 23-452)
T1 construct: Encoded as positions 1-420 in pMX-SST and expressed on Ba/F3 cells; The vector-encoded part is not described; also called R420
T1 sequence: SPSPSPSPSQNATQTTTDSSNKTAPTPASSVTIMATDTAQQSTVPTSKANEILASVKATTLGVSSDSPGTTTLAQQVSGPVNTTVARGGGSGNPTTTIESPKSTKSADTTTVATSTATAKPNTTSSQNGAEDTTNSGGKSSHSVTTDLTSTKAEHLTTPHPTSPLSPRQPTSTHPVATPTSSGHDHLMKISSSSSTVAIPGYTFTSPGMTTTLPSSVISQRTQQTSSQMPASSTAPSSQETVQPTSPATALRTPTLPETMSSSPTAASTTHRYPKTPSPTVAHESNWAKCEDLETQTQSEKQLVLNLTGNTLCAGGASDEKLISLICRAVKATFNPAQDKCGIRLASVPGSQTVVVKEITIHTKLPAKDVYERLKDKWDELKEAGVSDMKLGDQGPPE
Method: (§1) To each sample of the cell suspension, 50 μl of the hybridoma culture supernatant or 2-μg/ml of the purified antibody (hereinafter, referred to as an “antibody solution”) was added, and the antibody was reacted with the cells. As an isotype control of the antibody solution, a wash buffer containing 2 μg/ml of each of mouse IgG1 (BioLegend, 400412), mouse IgG2a (BioLegend, 400224), and mouse IgG2b (BioLegend, 400324) was used. The hybridoma culture supernatant was reacted with the target cells at room temperature for 30 minutes, followed by centrifugation at 700×g for 2 minutes. Then, a culture supernatant was removed. Further, 100 μl of a wash buffer was added, followed by centrifugation at 700×g for 2 minutes again. A supernatant was removed. Then, the cells were washed.
(§2) Next, to the cell pellets after the washing, 50 μl of Goat anti-mouse IgG, F(ab′) 2-PE (PE=phycoerythrin, Beckman Coulter, IM0855) diluted 200-fold with a wash buffer was added as a secondary antibody for detection, and reacted in the dark at room temperature for 30 minutes. The reaction was followed by centrifugation at 700×g for 2 minutes. A supernatant was removed. Further, 100 μl of a wash buffer was added, followed by centrifugation at 700×g for 2 minutes again. A supernatant was removed. Then, the cells were washed. Thereafter, the cells were suspended in an appropriate amount of a wash buffer. The reactivity between the antibody and the cells was analyzed by a flow cytometer (Beckman Coulter, FC500 MPL).
(§3) Thereafter, by the same method as in Example 1 (4) (the virus packaging and thereafter), Ba/F3 cells containing the PODXL2 gene sequences of various chain lengths were prepared. Further, by the same method as in Example 4, the reactivity between the ACT36-27_{—}5D1 antibody and the Ba/F3 cells expressing the PODXL2 molecules of various chain lengths was analyzed by a flow cytometer (FIG. 10).

[2] = molecular target: T2, PODXL2, positions 1 to 350 (human, UniProt O00592 23-382)
T2 construct: One of the 14 C-terminal truncations; Expressed on Ba/F3 cells; also called R350
T2 sequence: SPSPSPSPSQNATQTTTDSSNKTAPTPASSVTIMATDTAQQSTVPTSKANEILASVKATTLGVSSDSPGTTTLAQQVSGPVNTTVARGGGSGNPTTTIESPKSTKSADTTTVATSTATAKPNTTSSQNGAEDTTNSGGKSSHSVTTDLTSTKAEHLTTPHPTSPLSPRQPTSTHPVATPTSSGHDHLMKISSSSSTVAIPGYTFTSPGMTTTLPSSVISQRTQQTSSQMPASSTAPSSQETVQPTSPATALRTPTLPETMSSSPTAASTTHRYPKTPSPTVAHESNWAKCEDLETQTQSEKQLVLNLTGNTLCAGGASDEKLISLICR
Method: as §1, §2, §3

[3] = molecular target: T3, PODXL2, positions 1 to 400 (human, UniProt O00592 23-432)
T3 construct: Encoded as positions 1-400 in pMX-SST and expressed on Ba/F3 cells; The vector-encoded part is not described; also called R400
T3 sequence: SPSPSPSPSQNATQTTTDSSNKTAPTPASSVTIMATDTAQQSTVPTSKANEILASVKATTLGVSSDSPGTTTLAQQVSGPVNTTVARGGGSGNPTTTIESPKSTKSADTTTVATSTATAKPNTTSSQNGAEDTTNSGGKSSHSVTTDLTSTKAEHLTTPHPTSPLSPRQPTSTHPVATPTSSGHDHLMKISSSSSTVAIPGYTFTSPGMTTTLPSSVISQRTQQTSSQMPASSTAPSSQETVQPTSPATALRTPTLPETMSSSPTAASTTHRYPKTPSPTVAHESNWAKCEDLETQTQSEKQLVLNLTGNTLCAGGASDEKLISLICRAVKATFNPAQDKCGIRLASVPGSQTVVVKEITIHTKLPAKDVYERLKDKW
Method: as §1, §2, §3

[4] = molecular target: T4, PODXL2, positions 1 to 320 (human, UniProt O00592 23-352)
T4 construct: One of the 14 C-terminal truncations; Expressed on Ba/F3 cells; also called R320
T4 sequence: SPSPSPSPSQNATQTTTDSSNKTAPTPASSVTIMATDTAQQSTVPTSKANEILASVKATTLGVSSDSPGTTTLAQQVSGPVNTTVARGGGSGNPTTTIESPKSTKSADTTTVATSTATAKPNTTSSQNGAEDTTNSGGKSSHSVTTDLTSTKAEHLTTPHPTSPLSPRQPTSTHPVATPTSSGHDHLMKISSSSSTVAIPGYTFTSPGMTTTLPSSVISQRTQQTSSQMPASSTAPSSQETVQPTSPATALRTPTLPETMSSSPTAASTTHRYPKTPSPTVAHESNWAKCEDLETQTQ
Method: as §1, §2, §3

B1: ACT36-27-5D1 antibody (antibody, V domains shown)
VH: EVQLQQSGPELVKPGASVKMSCKASGYTFTSYVMHWVKQKPGQGLEWIGYIHPYNDGIKYNEKFKGKATLTSDKSSSTAYMDLSSLTSEDSAVYYCARSWDWYFDVWAAGTTVTVSS
VL: QIVLTQSPAIMSASPGEKVSMTCSASSSVSYMHWYQQKSGTSPKRWIYDTSKLASGVPARFSGSGSGTSYSLTISSMEAEDAATYYCLQWSSNPPTFGGGTKLE
notes: also called anti-PODXL2 antibody ACT36-27-5D1; anti-ACT36-27-5D1 monoclonal antibody
Question: Does B1 bind [1]?
Answer: Result: binds

Question: Does B1 bind [2]?
Answer: Result: no binding

Question: Does B1 bind [3]?
Answer: Result: no binding

Question: Does B1 bind [4]?
Answer: Result: no binding
